According to patent US20260285971 (published 2026):

Experiments:
human GPRC5D [1] = target: T1, human GPRC5D (human); experiment: FACS NCI-H929
T1 chain: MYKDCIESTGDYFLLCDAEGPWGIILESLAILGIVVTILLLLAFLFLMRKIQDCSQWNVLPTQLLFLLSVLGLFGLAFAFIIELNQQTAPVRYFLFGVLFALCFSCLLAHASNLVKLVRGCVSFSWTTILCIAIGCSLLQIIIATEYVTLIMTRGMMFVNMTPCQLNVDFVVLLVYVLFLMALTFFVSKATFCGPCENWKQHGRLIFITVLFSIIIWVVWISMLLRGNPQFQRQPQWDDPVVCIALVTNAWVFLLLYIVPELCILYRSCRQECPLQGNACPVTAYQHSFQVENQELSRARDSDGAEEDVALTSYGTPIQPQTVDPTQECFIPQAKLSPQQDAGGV

human GPRC5D [2] = target: T1, human GPRC5D; experiment: FACS RPMI-8226
human GPRC5D [3] = target: T1, human GPRC5D; experiment: FACS molp-8
human GPRC5D [4] = target: T1, human GPRC5D; experiment: ELISA
human GPRC5D [5] = target: T1, human GPRC5D; experiment: ELISA
human GPRC5D [6] = target: T1, human GPRC5D; experiment: FACS NCI-H929
human GPRC5D [7] = target: T1, human GPRC5D; experiment: FACS molp-8
human GPRC5D [8] = target: T1, human GPRC5D; experiment: FACS RPMI-8226

B1: Lab03-huFc (antibody, V domains shown)
VH: DVQLQASGGGSVQAGGSLRLSCAASGDTANCIGWFRQAPGKGREGVAAIYTGLGNTYYANSAKGRFTIAQDNAKNTVYLQMNSLKPEDSAMYYCAAGGILGRFCSRYFGQGTQVTVSS
An EC50 (human GPRC5D [1]) of 0.909 nM, an EC50 (human GPRC5D [2]) of 0.603 nM and an EC50 (human GPRC5D [3]) of 0.599 nM were found for B1 in this work. It also gave an EC50 (human GPRC5D [4]) of 0.0319 nM.

B2: HAB03-H11 (antibody, V domains shown)
VH: DVQLVESGGGLVQPGGSLRLSCAASGDTANCIGWFRQAPGKGREGVAAIYTGLGNTYYANSAKGRFTISQDNAKNSVYLQMNSLRAEDTAVYYCAAGGILGRFCSRYFGQGTMVTVSS
An EC50 (human GPRC5D [1]) of 1.12 nM, an EC50 (human GPRC5D [2]) of 0.627 nM and an EC50 (human GPRC5D [3]) of 0.812 nM were found for B2 in this work. For the same binder, the EC50 (human GPRC5D [4]) was 0.0338 nM.

B3: HAB04-H4 (antibody, V domains shown)
VH: EVQLVESGGGLVQPGGSLRLSCAASGFPYSTSRMGWFRQAPGKEREGVATIVPGTGYTYYVDSVKGRFTISQDSAKNSLYLQMNSLRAEDTAVYYCAAGDRRLLLNLLAPADYFYWGQGTMVTVSS
An EC50 (human GPRC5D [5]) of 0.0382 nM, an EC50 (human GPRC5D [6]) of 1.41 nM and an EC50 (human GPRC5D [7]) of 2.71 nM were found for B3 in this work. For the same binder, the EC50 (human GPRC5D [8]) was 2.29 nM.

B4: HAB03-H12 (antibody, V domains shown)
VH: EVQLVASGGGLVQPGGSLRLSCAASGDTANCIGWFRQAPGKGREGVAAIYTGLGNTYYANSAKGRFTISQDNAKNSVYLQMNSLRAEDTAVYYCAAGGILGRFCSRYFGQGTMVTVSS
An EC50 (human GPRC5D [1]) of 0.808 nM, an EC50 (human GPRC5D [2]) of 51.1 nM and an EC50 (human GPRC5D [3]) of 0.642 nM were found for B4 in this work. It also gave an EC50 (human GPRC5D [4]) of 0.0307 nM.

B5: HAB03-H8 (antibody, V domains shown)
VH: EVQLVESGGGLVQPGGSLRLSCAASGDTANCIGWFRQAPGKGLEGVAAIYTGLGNTYYANSAKGRFTISQDNAKNSVYLQMNSLRAEDTAVYYCAAGGILGRFCSRYFGQGTMVTVSS
An EC50 (human GPRC5D [1]) of 1.41 nM, an EC50 (human GPRC5D [2]) of 0.66 nM and an EC50 (human GPRC5D [3]) of 1.22 nM were found for B5 in this work. It also gave an EC50 (human GPRC5D [4]) of 0.0462 nM.

B6: HAB03-H10 (antibody, V domains shown)
VH: EVQLVESGGGLVQPGGSLRLSCAASGDTANCIGWFRQAPGKGREGVAAIYTGLGNTYYANSAKGRFTISRDNAKNSVYLQMNSLRAEDTAVYYCAAGGILGRFCSRYFGQGTMVTVSS
An EC50 (human GPRC5D [1]) of 0.944 nM, an EC50 (human GPRC5D [2]) of 1.43 nM and an EC50 (human GPRC5D [3]) of 0.762 nM were found for B6 in this work. For the same binder, the EC50 (human GPRC5D [4]) was 0.0324 nM.

B7: HAB04-H10 (antibody, V domains shown)
VH: EVQLVASGGGLVQPGGSLRLSCAASGFPYSTSRMGWFRQAPGKEREGVATIVPGTGYTYYVDSVKGRFTISQDSAKNSLYLQMNSLRAEDTAVYYCAAGDRRLLLNLLAPADYFYWGQGTMVTVSS
An EC50 (human GPRC5D [5]) of 0.0481 nM, an EC50 (human GPRC5D [6]) of 1.21 nM and an EC50 (human GPRC5D [7]) of 4.3 nM were found for B7 in this work. It also gave an EC50 (human GPRC5D [8]) of 3.05 nM.

B8: HAB04-H14 (antibody, V domains shown)
VH: EVQLVASGGGLVQPGGSLRLSCAASGFPYSTSRMGWFRQAPGKEREGVATIVPGTGYTYYADSVKGRFTISQDNAKNSLYLQMNSLRAEDTAVYYCAAGDRRLLLNLLAPADYFYWGQGTMVTVSS
An EC50 (human GPRC5D [5]) of 0.0349 nM, an EC50 (human GPRC5D [6]) of 0.711 nM and an EC50 (human GPRC5D [7]) of 1.35 nM were found for B8 in this work. It also gave an EC50 (human GPRC5D [8]) of 1.64 nM.

B9: HAB04-H5 (antibody, V domains shown)
VH: EVQLVESGGGLVQPGGSLRLSCAASGFPYSTSRVGWFRQAPGKEREGVATIVPGTGYTYYVDSVKGRFTISQDNAKNSVYLQMNSLRAEDTAVYYCAAGDRRLLLNLLAPADYFYWGQGTMVTVSS
An EC50 (human GPRC5D [5]) of 0.0333 nM, an EC50 (human GPRC5D [6]) of 1.02 nM and an EC50 (human GPRC5D [7]) of 2.8 nM were found for B9 in this work. For the same binder, the EC50 (human GPRC5D [8]) was 2.05 nM.

B10: HAB04-H8 (antibody, V domains shown)
VH: EVQLQESGGGLVQPGGSLRLSCVASGFPYSTSRMGWFRQAPGKEREGVATIVPGTGYTYYVDSVKGRFTISQDNAKNSLYLQMNSLRAEDTAVYYCAAGDRRLLLNLLAPADYFYWGQGTMVTVSS
An EC50 (human GPRC5D [5]) of 0.0311 nM, an EC50 (human GPRC5D [6]) of 1.28 nM and an EC50 (human GPRC5D [7]) of 1.74 nM were found for B10 in this work. The EC50 (human GPRC5D [8]) was 1.68 nM.

B11: HAB04-H3 (antibody, V domains shown)
VH: EVQLVESGGGLVQPGGSLRLSCAASGFPYSTSRMGWFRQAPGKEREGVATIVPGTGYTYYVDSVKGRFTISQDNAKNSLYLQMNSLRAEDTAVYYCAAGDRRLLLNLLAPADYFYWGQGTMVTVSS
An EC50 (human GPRC5D [5]) of 0.034 nM, an EC50 (human GPRC5D [6]) of 1.35 nM and an EC50 (human GPRC5D [7]) of 3.04 nM were found for B11 in this work. It also gave an EC50 (human GPRC5D [8]) of 2.81 nM.
